Laboratory results taken from patent US20200199241A1 (Chugai, published 2020).

T1: human FcγRIIa(H) (human, UniProt P12318 36-217)
T1 construct: also called FcgRIIaH; FcγRIIa type H
T1 sequence: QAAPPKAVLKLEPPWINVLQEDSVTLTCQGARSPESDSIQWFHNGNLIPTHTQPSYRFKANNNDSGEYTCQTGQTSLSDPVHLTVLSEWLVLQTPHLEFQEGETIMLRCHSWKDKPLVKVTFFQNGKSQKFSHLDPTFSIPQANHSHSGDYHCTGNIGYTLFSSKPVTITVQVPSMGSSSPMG

T2: human FcγRIIb (human, UniProt P31994 43-217, limits assumed)
T2 construct: also called FcgRIIb
T2 sequence: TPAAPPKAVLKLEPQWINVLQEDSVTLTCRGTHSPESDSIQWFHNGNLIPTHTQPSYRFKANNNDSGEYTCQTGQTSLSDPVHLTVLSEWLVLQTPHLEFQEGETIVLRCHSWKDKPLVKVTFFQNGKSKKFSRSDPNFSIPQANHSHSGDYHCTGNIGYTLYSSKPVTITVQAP

T3: human FcγRIIa(R) (human, UniProt P12318 36-217)
T3 construct: also called FcgRIIaR; FcγRIIa type R
T3 chain: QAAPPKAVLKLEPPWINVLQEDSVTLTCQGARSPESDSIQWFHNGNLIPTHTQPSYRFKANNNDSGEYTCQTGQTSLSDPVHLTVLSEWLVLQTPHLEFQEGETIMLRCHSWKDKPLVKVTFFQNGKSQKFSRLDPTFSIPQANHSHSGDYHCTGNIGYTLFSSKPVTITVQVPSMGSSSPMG


Tests used:
Test in all cases: SPR (Biacore);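 further: antibody variants captured on sensor chip, Fcγ receptor flowed over at 25 °C, bound receptor normalized to amount of captured antibody, expressed relative to reference antibody set as 100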
human FcγRIIIa(F) = molecular target: T4, human FcγRIIIa(F) (human, UniProt P08637 17-208, limits assumed)
T4 construct: also called FcgRIIIaF; allotype F158

human FcγRIIa(H) = molecular target: T1, human FcγRIIa(H)
human FcγRIIb = molecular target: T2, human FcγRIIb
human FcγRIIa(R) = molecular target: T3, human FcγRIIa(R)
human FcγRIa = molecular target: T5, human FcγRIa (human, UniProt P12314 16-292, limits assumed)
T5 construct: also called FcgRIa; FcγRI (CD64)
T5 sequence (P12314 16-292 limits assumed): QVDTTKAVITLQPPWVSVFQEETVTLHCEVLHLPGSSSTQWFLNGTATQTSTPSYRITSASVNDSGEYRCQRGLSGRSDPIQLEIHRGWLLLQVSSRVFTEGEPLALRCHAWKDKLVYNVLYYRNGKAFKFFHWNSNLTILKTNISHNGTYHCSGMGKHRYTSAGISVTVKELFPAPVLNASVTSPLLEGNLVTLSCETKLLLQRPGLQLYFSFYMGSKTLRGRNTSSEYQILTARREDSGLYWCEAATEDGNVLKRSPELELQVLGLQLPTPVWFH

T4 sequence (P08637 other isoform, or with tags, fused parts or gaps limits assumed): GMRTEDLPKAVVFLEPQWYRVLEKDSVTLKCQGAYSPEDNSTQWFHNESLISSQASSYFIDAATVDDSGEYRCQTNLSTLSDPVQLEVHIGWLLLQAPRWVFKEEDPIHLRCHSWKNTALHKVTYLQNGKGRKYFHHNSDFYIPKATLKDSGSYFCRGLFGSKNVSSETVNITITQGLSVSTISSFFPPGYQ

| relative binding activity (human FcγRIIIa(F)) | relative binding activity (human FcγRIIa(H)) | relative binding activity (human FcγRIIb) | relative binding activity (human FcγRIIa(R)) | relative binding activity (human FcγRIa) | Binder |
| --- | --- | --- | --- | --- | --- |
| 14 % of GpH7-B3/GpL16-k0 | 33 % of GpH7-B3/GpL16-k0 | 26 % of GpH7-B3/GpL16-k0 | 34 % of GpH7-B3/GpL16-k0 | 93 % of GpH7-B3/GpL16-k0 | GpH7-B3 variant E269P/GpL16-k0 (antibody, human IgG1, copies: 2 + 2) heavy: not shown light: DIVMTQSPLSLPVTPGEPASISCQASESLVHSNRNTYLHWYLQKPGQSPQLLIYKVSNRFSGVPDRFSGSGSGTDFTLKISRVEAEDVGVYYCSQNTHVPPTFGQGTKVEIE |
| 38 % of GpH7-B3/GpL16-k0 | 64 % of GpH7-B3/GpL16-k0 | 13 % of GpH7-B3/GpL16-k0 | 24 % of GpH7-B3/GpL16-k0 | 96 % of GpH7-B3/GpL16-k0 | GpH7-B3 variant E269Q/GpL16-k0 (antibody, human IgG1, copies: 2 + 2) heavy: not shown light: DIVMTQSPLSLPVTPGEPASISCQASESLVHSNRNTYLHWYLQKPGQSPQLLIYKVSNRFSGVPDRFSGSGSGTDFTLKISRVEAEDVGVYYCSQNTHVPPTFGQGTKVEIE |
| 21 % of GpH7-B3/GpL16-k0 | 31 % of GpH7-B3/GpL16-k0 | 15 % of GpH7-B3/GpL16-k0 | 24 % of GpH7-B3/GpL16-k0 | 90 % of GpH7-B3/GpL16-k0 | GpH7-B3 variant E269N/GpL16-k0 (antibody, human IgG1, copies: 2 + 2) heavy: not shown light: DIVMTQSPLSLPVTPGEPASISCQASESLVHSNRNTYLHWYLQKPGQSPQLLIYKVSNRFSGVPDRFSGSGSGTDFTLKISRVEAEDVGVYYCSQNTHVPPTFGQGTKVEIE |
| 27 % of GpH7-B3/GpL16-k0 | 46 % of GpH7-B3/GpL16-k0 | 25 % of GpH7-B3/GpL16-k0 | 38 % of GpH7-B3/GpL16-k0 | 94 % of GpH7-B3/GpL16-k0 | GpH7-B3 variant E269G/GpL16-k0 (antibody, human IgG1, copies: 2 + 2) heavy: not shown light: DIVMTQSPLSLPVTPGEPASISCQASESLVHSNRNTYLHWYLQKPGQSPQLLIYKVSNRFSGVPDRFSGSGSGTDFTLKISRVEAEDVGVYYCSQNTHVPPTFGQGTKVEIE |
| 10 % of GpH7-B3/GpL16-k0 | 40 % of GpH7-B3/GpL16-k0 | 12 % of GpH7-B3/GpL16-k0 | 20 % of GpH7-B3/GpL16-k0 | 98 % of GpH7-B3/GpL16-k0 | GpH7-B3 variant E269L/GpL16-k0 (antibody, human IgG1, copies: 2 + 2) heavy: not shown light: DIVMTQSPLSLPVTPGEPASISCQASESLVHSNRNTYLHWYLQKPGQSPQLLIYKVSNRFSGVPDRFSGSGSGTDFTLKISRVEAEDVGVYYCSQNTHVPPTFGQGTKVEIE |
| 7 % of GpH7-B3/GpL16-k0 | 38 % of GpH7-B3/GpL16-k0 | 2 % of GpH7-B3/GpL16-k0 | -2 % of GpH7-B3/GpL16-k0 | 74 % of GpH7-B3/GpL16-k0 | GpH7-B3 variant D270W/GpL16-k0 (antibody, human IgG1, copies: 2 + 2) heavy: not shown light: DIVMTQSPLSLPVTPGEPASISCQASESLVHSNRNTYLHWYLQKPGQSPQLLIYKVSNRFSGVPDRFSGSGSGTDFTLKISRVEAEDVGVYYCSQNTHVPPTFGQGTKVEIE |

The next lines start with the binder.

| Binder | relative binding activity (human FcγRIIIa(F)) | relative binding activity (human FcγRIIa(H)) | relative binding activity (human FcγRIIb) | relative binding activity (human FcγRIIa(R)) | relative binding activity (human FcγRIa) |
| --- | --- | --- | --- | --- | --- |
| GpH7-B3 variant D265Q/GpL16-k0 (antibody, human IgG1, copies: 2 + 2) heavy: not shown light: DIVMTQSPLSLPVTPGEPASISCQASESLVHSNRNTYLHWYLQKPGQSPQLLIYKVSNRFSGVPDRFSGSGSGTDFTLKISRVEAEDVGVYYCSQNTHVPPTFGQGTKVEIE | -1 % of GpH7-B3/GpL16-k0 | 13 % of GpH7-B3/GpL16-k0 | 4 % of GpH7-B3/GpL16-k0 | 13 % of GpH7-B3/GpL16-k0 | 67 % of GpH7-B3/GpL16-k0 |
| GpH7-B3 variant D265S/GpL16-k0 (antibody, human IgG1, copies: 2 + 2) heavy: not shown light: DIVMTQSPLSLPVTPGEPASISCQASESLVHSNRNTYLHWYLQKPGQSPQLLIYKVSNRFSGVPDRFSGSGSGTDFTLKISRVEAEDVGVYYCSQNTHVPPTFGQGTKVEIE | -2 % of GpH7-B3/GpL16-k0 | 2 % of GpH7-B3/GpL16-k0 | 1 % of GpH7-B3/GpL16-k0 | 0 % of GpH7-B3/GpL16-k0 | 20 % of GpH7-B3/GpL16-k0 |
| GpH7-B3 variant D270K/GpL16-k0 (antibody, human IgG1, copies: 2 + 2) heavy: not shown light: DIVMTQSPLSLPVTPGEPASISCQASESLVHSNRNTYLHWYLQKPGQSPQLLIYKVSNRFSGVPDRFSGSGSGTDFTLKISRVEAEDVGVYYCSQNTHVPPTFGQGTKVEIE | 5 % of GpH7-B3/GpL16-k0 | 16 % of GpH7-B3/GpL16-k0 | -5 % of GpH7-B3/GpL16-k0 | -4 % of GpH7-B3/GpL16-k0 | 45 % of GpH7-B3/GpL16-k0 |
| GpH7-B3 variant D265T/GpL16-k0 (antibody, human IgG1, copies: 2 + 2) heavy: not shown light: DIVMTQSPLSLPVTPGEPASISCQASESLVHSNRNTYLHWYLQKPGQSPQLLIYKVSNRFSGVPDRFSGSGSGTDFTLKISRVEAEDVGVYYCSQNTHVPPTFGQGTKVEIE | -2 % of GpH7-B3/GpL16-k0 | 5 % of GpH7-B3/GpL16-k0 | 1 % of GpH7-B3/GpL16-k0 | 2 % of GpH7-B3/GpL16-k0 | 48 % of GpH7-B3/GpL16-k0 |
| GpH7-B3 variant D270P/GpL16-k0 (antibody, human IgG1, copies: 2 + 2) heavy: not shown light: DIVMTQSPLSLPVTPGEPASISCQASESLVHSNRNTYLHWYLQKPGQSPQLLIYKVSNRFSGVPDRFSGSGSGTDFTLKISRVEAEDVGVYYCSQNTHVPPTFGQGTKVEIE | -1 % of GpH7-B3/GpL16-k0 | 0 % of GpH7-B3/GpL16-k0 | -1 % of GpH7-B3/GpL16-k0 | -3 % of GpH7-B3/GpL16-k0 | 64 % of GpH7-B3/GpL16-k0 |
